The values that follow come from patent publication EP4039268A1 (IMBA-Institut für Molekulare Biotechnologie GmbH, dated 2022).

B1: Pla2r1_4 CRD-mouse IgG2a-Fc fusion protein (Fc fusion)
chain: GLASCFKVFHSEKVLMKRSWREAEAFCEEFGAHLASFAHIEEENFVNELLHSKFNWTQERQFWIGFNRRNPLNAGSWAWSDGSPVVSSFLDNAYFEEDAKNCAVYKANKTLLPSNCASKHEWICRGGGSGGGSGGGS
B2: Sele CRD-mouse IgG2a-Fc fusion protein (Fc fusion)
chain: WYYNASSELMTYDEASAYCQRDYTHLVAIQNKEEINYLNSNLKHSPSYYWIGIRKVNNVWIWVGTGKPLTEEAQNWAPGEPNNKQRNEDCVEIYIQRTKDSGMWNDERCNKKKLALCYGGGSGGGSGGGS
B3: Pkd1l3 CRD-mouse IgG2a-Fc fusion protein (Fc fusion)
chain: GGNSCYQLNRLFCDFQEADNYCHAQRGRLAHTWNPKLRGFLKSFLNEETVWWVRGNLTLPGSHPGINQTGGDDVLRNQKPGECPSVVTHSNAVFSRWNLCIEKHHFICQGGGSGGGSGGGS
B4: Pla2r1_5 CRD-mouse IgG2a-Fc fusion protein (Fc fusion)
chain: YQNAEYLFHTHPAEWATFEFVCGWLRSDFLTIYSAQEQEFIHSKIKGLTKYGVKWWIGLEEGGARDQIQWSNGSPVIFQNWDKGREERVDSQRKRCVFISSITGLWGTENCSVPLPSICKGGGSGGGSGGGS
B5: Pla2r1_7 CRD-mouse IgG2a-Fc fusion protein (Fc fusion)
chain: YGNRTYKIIRGNMTWYAAGKSCRMHRAELASIPDAFHQAFLTVLLSRLGHTHWIGLSTTDNGQTFDWSDGTKSPFTYWKDEESAFLGDCAFADTNGRWHSTACESFLQGAICGGGSGGGSGGGS
B6: Mrc2_3 CRD-mouse IgG2a-Fc fusion protein (Fc fusion)
chain: HSPSCYWLGEDQVIYSDARRLCTDHGSQLVTITNRFEQAFVSSLIYNWEGEYFWTALQDLNSTGSFRWLSGDEVIYTHWNRDQPGYRRGGCVALATGSAMGLWEVKNCTSFRARYICGGGSGGGSGGGS
B7: Mrc2_2 CRD-mouse IgG2a-Fc fusion protein (Fc fusion)
chain: FQGHCYRLQAEKRSWQESKRACLRGGGDLLSIHSMAELEFITKQIKQEVEELWIGLNDLKLQMNFEWSDGSLVSFTHWHPFEPNNFRDSLEDCVTIWGPEGRWNDSPCNQSLPSICKGGGSGGGSGGGS
B8: Mrc2_7 CRD-mouse IgG2a-Fc fusion protein (Fc fusion)
chain: YLNHTFRLLQKPLRWKDALLLCESRNASLAHVPDPYTQAFLTQAARGLQTPLWIGLASEEGSRRYSWLSEEPLNYVSWQDEEPQHSGGCAYVDVDGTWRTTSCDTKLQGAVCGGGSGGGSGGGS

T1 sequence (Q9BYF1 18-740 limits assumed): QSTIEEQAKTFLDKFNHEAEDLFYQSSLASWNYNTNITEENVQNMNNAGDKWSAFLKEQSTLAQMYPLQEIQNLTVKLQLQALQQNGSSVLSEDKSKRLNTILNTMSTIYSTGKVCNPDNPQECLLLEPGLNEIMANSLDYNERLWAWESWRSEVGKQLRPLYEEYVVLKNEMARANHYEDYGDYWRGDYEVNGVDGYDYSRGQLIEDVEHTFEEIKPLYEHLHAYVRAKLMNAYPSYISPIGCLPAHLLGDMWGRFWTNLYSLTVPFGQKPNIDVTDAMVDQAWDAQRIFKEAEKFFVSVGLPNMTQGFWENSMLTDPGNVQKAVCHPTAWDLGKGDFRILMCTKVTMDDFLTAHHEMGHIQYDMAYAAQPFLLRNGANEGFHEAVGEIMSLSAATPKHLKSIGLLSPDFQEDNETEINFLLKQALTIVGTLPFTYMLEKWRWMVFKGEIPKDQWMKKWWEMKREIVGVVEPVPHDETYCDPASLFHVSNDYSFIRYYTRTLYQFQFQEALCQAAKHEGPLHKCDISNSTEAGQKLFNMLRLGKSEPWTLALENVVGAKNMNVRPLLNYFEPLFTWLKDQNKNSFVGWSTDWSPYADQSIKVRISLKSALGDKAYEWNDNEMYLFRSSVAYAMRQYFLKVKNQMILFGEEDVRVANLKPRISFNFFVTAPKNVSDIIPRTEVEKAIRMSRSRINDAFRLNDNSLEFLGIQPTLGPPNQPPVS

The first experiment has as its target T1, human recombinant soluble ACE2 (human, UniProt Q9BYF1 18-740).
T1 construct: also called hrsACE2
Kind of experiment: ELISA.
B1: the binding result is on record as “no binding (tested: 10 µg/ml)”.
On to B2, for which the binding result is reported as “no binding (tested: 10 µg/ml)”.
On the same count and under the same terms, then B3, with “no binding (tested: 10 µg/ml)”; and B4, with “no binding (tested: 10 µg/ml)”.
Same read-out and setting: then B5, with “no binding (tested: 10 µg/ml)”; and B6, with “no binding (tested: 10 µg/ml)”.
The same measure, in the same setting: then B7, with “no binding (tested: 10 µg/ml)”; and B8, with “no binding (tested: 10 µg/ml)”.

In a further experiment the target is T2, full-length trimeric SARS-CoV-2 Spike protein (Spike-H6) (SARS-CoV-2, N-glycosylated (22 N-glycosylation sites)).
T2 construct: also called trimeric Spike; full-length Spike-H6
Kind of experiment: ELISA screen.
For B1, the “Mean normalized OD” value was determined as 0.063 OD.
On the same count and under the same terms, to B2 belongs 0.001 OD; to B3, 0.046 OD; to B4, 0.029 OD.
As to B5, the “Mean normalized OD” value was determined as 0.002 OD.
Still for that read-out and setting: then B6, with 0.003 OD; and B7, with 0.017 OD; and B8, with 0.002 OD.

Another experiment deals with T3, monomeric SARS-CoV-2 receptor binding domain (RBD-H6) (SARS-CoV-2, UniProt P0DTC2 319-541).
T3 construct: Made in HEK293-6E cells; also called RBD Spike; monomeric RBD
Kind of experiment: ELISA screen. A general note: ELISA stands for enzyme-linked immunosorbent assay.
On to B1, for which the “Mean normalized OD” value is 0.053 OD.
Same read-out and setting: then B2, with 0 OD; and B3, with -0.001 OD; and B4, with 0.036 OD.
Same read-out and setting: then B5, with 0 OD; and B6, with 0.003 OD.
The same measure, in the same setting: then B7, with 0.038 OD.
As for B8, the “Mean normalized OD” value stood at 0.002 OD.

A further experiment addresses T1, human recombinant soluble ACE2. Nature of the experiment: ELISA screen.
On to B1, for which the “Mean normalized OD” value turned out to be 0.088 OD.
The same measure, in the same setting: to B2 belongs 0 OD; to B3, 0.017 OD; to B4, 0.065 OD.
Turning to B5, the “Mean normalized OD” value amounted to 0 OD.
On the same count and under the same terms, then B6, with 0.01 OD; and B7, with 0.009 OD.
Consider B8, for which the “Mean normalized OD” value came out at 0 OD.
